According to paper PMC3058729:

Molecular target: GST fusion protein of the cytoplasmic region of DSC2a A897fsX900 (aa 716–899) (human) (UniProt Q02487)
Experiment: pull-down

Chain of UniProt Q02487 (Q02487 716-899): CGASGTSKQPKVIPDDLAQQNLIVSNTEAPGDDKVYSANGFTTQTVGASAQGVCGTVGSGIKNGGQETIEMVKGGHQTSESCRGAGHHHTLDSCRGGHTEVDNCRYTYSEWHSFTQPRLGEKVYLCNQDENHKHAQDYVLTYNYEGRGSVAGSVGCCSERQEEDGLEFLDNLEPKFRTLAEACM

reduction of binding against DSC2a WT (densitometry): 50%
B1: plakoglobin (PG), endogenous in adult rat heart lysate (natural protein)
chain: MEVMNLIEQPIKVTEWQQTYTYDSGIHSGVNTCVPSVSSKGLLDEDDTCGRQYTLKKTTTYTQGVPQSQGDLEYQMSTTARAKRVREAMCPGVSGEDSSLLLATQVEGQTTNLQRLAEPSQLLKSAIVHLINYQDDAELATRALPELTKLLNDEDPVVVTKAAMIVNQLSKKEASRRALMGSPQLVAAVVRTMQNTSDLDTARCTTSILHNLSHHREGLLAIFKSGGIPALVRMLSSPVESVLFYAITTLHNLLLYQEGAKMAVRLADGLQKMVPLLNKNNPKFLAITTDCLQLLAYGNQESKLIILANGGPQGLVQIMRNYSYEKLLWTTSRVLKVLSVCPSNKPAIVEAGGMQALGKHLTSNSPRLVQNCLWTLRNLSDVATKQEGLENVLKILVNQLSVDDVNVLTCATGTLSNLTCNNSKNKTLVTQNSGVEALIHAILRAGDKDDITEPAVCALRHLTSRHPEAEMAQNSVRLNYGIPAIVKLLNQPNQWPLVKATIGLIRNLALCPANHAPLQEAAVIPRLVQLLVKAHQDAQRHVAAGTQQPYTDGVRMEEIVEGCTGALHILARDPMNRMEIFRLNTIPLFVQLLYSSVENIQRVAAGVLCELAQDKEAADAIDAEGASAPLMELLHSRNEGTATYAAAVLFRISEDKNPDYRKRVSVELTNSLFKHDPAAWEAAQSMIPINEPYADDMDATYRPMYSSDVPLDPLDMHMDMDGDYPMDTYSDGLRPPYPAADHMLA
